Article PMC6429771, “Identification of new glutamate decarboxylases from Streptomyces for efficient production of γ-aminobutyric acid in engineered Escherichia coli” (Journal of Biological Engineering, 2019)

How the values were obtained:
Test in all cases: GABA formation by Berthelot reaction, A630, Lineweaver-Burk plot
[1] = substrate: N[C@@H](CCC(=O)O)C(=O)O; format: biochemical, Streptomyces toxytricini; details: 0.01 mM PLP, 200 mM Na2HPO4-citric acid buffer pH 5.2, 37 °C, 5-100 mM MSG
Text: GABA formation by Berthelot reaction, A630, Lineweaver-Burk plot on StGAD

[2] = substrate: N[C@@H](CCC(=O)O)C(=O)O; format: biochemical, Streptomyces chromofuscus; details: 0.01 mM PLP, 200 mM Na2HPO4-citric acid buffer pH 4.2, 37 °C, 5-100 mM MSG
Text: GABA formation by Berthelot reaction, A630, Lineweaver-Burk plot on ScGAD

[3] = substrate: N[C@@H](CCC(=O)O)C(=O)O; format: biochemical, Escherichia coli; details: 0.01 mM PLP, 200 mM Na2HPO4-citric acid buffer pH 4.0, 37 °C, 5-100 mM MSG
Text: GABA formation by Berthelot reaction, A630, Lineweaver-Burk plot on GadB

B1: StGAD (Streptomyces toxytricini) (protein)
chain: MALHKTKDVTGGDTGTDVFTTALSGRVLPKYRMPEEHSPSEAVYALLRNELLLDGNAAQNLATFCTTWSDDGVHRLMNECLDKNMVDKDEYPQTAEIEARCVNILAHLWHAPAEDGPATGCSTTGSSEAAMLGGLALKWRWRARRRAQGLPADRPNLVCGPVQVCWEKFARYFDVELRQIPLEEDATGLRPHQLAEYVDENTIGVVAILGVTYTCDYEPVADIAAALDAIQQEHGWDVPIHVDGASGGLVAPFLHPDVVWDFALPRVASINTSGHKYGLAPLGVGWVVWRTADLLPPELVFDVDYLGGDMPTFALNFSRPGGEAIAQYYLFLRLGRSGYRSVHQSCADTARFLAGEIAAMGPFTLLYDGQGALPAVSYRLTDPAAAGFTLYDLSDRLRMRGWQVPAYPLPARRDDTVIQRVLIRHGVTLDQIALLAEDMRRALDHLRAAPPTQPPTAPRSGFHH
notes: full-length ORF (1395 bp, about 464 residues, 53 kDa) in pET28a (NdeI/HindIII), His6-tagged, expressed in E. coli BL21(DE3), Ni-NTA purified
[1]
  Km: 7.67 ± 0.55 mM
  Vmax: 0.226 ± 0.01 µmol/min/mg
  kcat: 0.2 ± 0.02 s⁻¹
  kcat/Km: 26 ± 3 M⁻¹ s⁻¹

B2: ScGAD (Streptomyces chromofuscus) (protein)
chain: MPLHQGADRAADIPEEDRAELRRLSLNPFYGEADPVSEMTSAPPTQRLPEGPTPPHTAYQLVHDELMLDGNSRLNLATFVTTWMEPQAGVLMAECQDKNMIDKDEYPRTAELERRCVAMLADLWNAPDPATAVGCSTTGSSEACMLAGLALKRRWAKRNAARYPATARPNLVMGVNVQVCWEKFCTFWEVEARLVPMEGDRFHLDPQAAADLCDEDTIGVVAVLGSTFDGSYEPVAELCAVLDALQERTGLDVPVHVDGASGAMIAPFLDEDLVWDFRLPRVSSINTSGHKYGLVYPGVGWALWRSPAELPEELVFRVNYLGGDMPTFALNFSRPGAQVVAQYYTFLRLGRDGYRAVQQTARDIATTLSARIERLGGFRLLTRGDQLPVFAFTTASDVTNFDVFDVSRRLREHGWLVPAYTFPAHREDLSVLRVVCRNGFSADLAAMLVADLKRVLPELRAQERPMDRDPSAATAFHH
[2]
  Km: 23.25 ± 2.07 mM
  Vmax: 29.9 ± 2.16 µmol/min/mg
  kcat: 28.1 ± 1.99 s⁻¹
  kcat/Km: 1210 ± 90 M⁻¹ s⁻¹

B3: GadB (Escherichia coli K-12) (protein)
chain: MDKKQVTDLRSELLDSRFGAKSISTIAESKRFPLHEMRDDVAFQIINDELYLDGNARQNLATFCQTWDDENVHKLMDLSINKNWIDKEEYPQSAAIDLRCVNMVADLWHAPAPKNGQAVGTNTIGSSEACMLGGMAMKWRWRKRMEAAGKPTDKPNLVCGPVQICWHKFARYWDVELREIPMRPGQLFMDPKRMIEACDENTIGVVPTFGVTYTGNYEFPQPLHDALDKFQADTGIDIDMHIDAASGGFLAPFVAPDIVWDFRLPRVKSISASGHKFGLAPLGCGWVIWRDEEALPQELVFNVDYLGGQIGTFAINFSRPAGQVIAQYYEFLRLGREGYTKVQNASYQVAAYLADEIAKLGPYEFICTGRPDEGIPAVCFKLKDGEDPGYTLYDLSERLRLRGWQVPAFTLGGEATDIVVMRIMCRRGFEMDFAELLLEDYKASLKYLSDHPKLQGIAQQNSFKHT
[3]
  Km: 35.83 ± 2.40 mM
  Vmax: 12.5 ± 0.72 µmol/min/mg
  kcat: 11 ± 0.88 s⁻¹
  kcat/Km: 310 ± 20 M⁻¹ s⁻¹
